Like-named read-outs stand apart in the source and are kept apart here.

Data set [1] has as its target T1, Nab3-RRM(419) (Saccharomyces cerevisiae, UniProt P38996 329-419).
T1 sequence: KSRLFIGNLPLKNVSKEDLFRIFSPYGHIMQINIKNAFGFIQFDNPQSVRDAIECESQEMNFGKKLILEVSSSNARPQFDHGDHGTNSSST
Put plainly: fluorescence anisotropy. (Fluorescence polarisation rises when a labelled molecule tumbles more slowly, as on binding a larger partner.)

Data set [2] concerns the target T1, Nab3-RRM(419). Description: fluorescence anisotropy. This is another data set of the same source.

On to UUCUUAUUCUUA (ssRNA) [FAM-wtsnR47], for which, in the data set with Nab3-RRM(419) [1], the binding result is given as “binds”.

For the molecule UUCUUAUUUUUA (ssRNA) [FAM-snR47one], the binding result with Nab3-RRM(419) [2] was “binds”.

These data come from article PMC3017603.
